Numbering of substitutions follows the chain as printed. Numbers in names are those of the source. Like-named read-outs stand apart in the source and are kept apart here. Values belong to the binder of their own block, whether it stands above or below them.
How the values were obtained:
[1] = target: T1, cynomolgus TCR on primary cynomolgus T cells (cynomolgus); test: flow cytometry competition on primary cynomolgus T cells; competitor Flag-tagged T017000623 at EC30
T1 construct: whole, on cells; also called cyno TCRαβ
Method: (§1) T cells (human T cells obtained as described in Example 3 and cyno T cells purchased from LPT laboratory, Germany) were thawed and counted on the day of the assay and diluted to a concentration of 1E+06 cells/mL, before adding 75 μL to the wells of a V-bottom 96-well plate (Greiner, cat no 651180). Cells were washed once with cold FACS buffer, before adding 25 μL Nb and 25 μL competitor to the wells. […] Cells were resuspended and plates were incubated at 4° C. for 90 minutes, after which plates were washed twice in cold FACS buffer. […] Plates were washed twice in cold FACS buffer. […] Plates were washed twice in cold FACS buffer. Cells were resuspended in 55 μL 1/1000 diluted Propidium Iodide (Sigma-Aldrich, cat no P4170) in FACS buffer before acquiring data on the MACSQuant X (Miltenyi biotec).

[2] = target: T2, human TCR on primary human T cells (human, UniProt P01848 1-140; P01850 1-176); test: flow cytometry competition on primary human T cells; competitor Flag-tagged T017000624 at EC30
T2 construct: whole, on cells; also called human TCRαβ
T2 TCR alpha (looked up): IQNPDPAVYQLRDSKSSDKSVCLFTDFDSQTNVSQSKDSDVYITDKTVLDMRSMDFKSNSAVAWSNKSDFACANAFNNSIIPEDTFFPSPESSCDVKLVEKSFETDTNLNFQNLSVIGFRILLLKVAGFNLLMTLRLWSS
T2 TCR beta (looked up): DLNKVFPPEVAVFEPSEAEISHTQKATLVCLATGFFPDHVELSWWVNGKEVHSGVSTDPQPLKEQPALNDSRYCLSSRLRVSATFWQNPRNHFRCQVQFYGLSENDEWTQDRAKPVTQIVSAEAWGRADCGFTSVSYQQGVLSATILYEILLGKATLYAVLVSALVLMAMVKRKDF
Method: as §1

[3] = target: T3, Cynomolgus TCR(AEA41865/AEA41866)-zipper protein (cynomolgus); test: SPR, ProteOn XPR36; TCR-zipper protein immobilised by amine coupling
T3 construct: also called cyTCR-zipper; cyTCR(AEA41865)-zipper
T3 TCR alpha: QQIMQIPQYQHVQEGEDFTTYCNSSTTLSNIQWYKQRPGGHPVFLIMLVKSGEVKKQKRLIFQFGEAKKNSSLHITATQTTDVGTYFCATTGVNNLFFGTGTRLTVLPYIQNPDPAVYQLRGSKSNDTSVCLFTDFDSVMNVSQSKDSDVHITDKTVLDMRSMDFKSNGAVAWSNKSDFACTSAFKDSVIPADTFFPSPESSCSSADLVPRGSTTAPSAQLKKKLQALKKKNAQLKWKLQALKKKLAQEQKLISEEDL
T3 TCR beta: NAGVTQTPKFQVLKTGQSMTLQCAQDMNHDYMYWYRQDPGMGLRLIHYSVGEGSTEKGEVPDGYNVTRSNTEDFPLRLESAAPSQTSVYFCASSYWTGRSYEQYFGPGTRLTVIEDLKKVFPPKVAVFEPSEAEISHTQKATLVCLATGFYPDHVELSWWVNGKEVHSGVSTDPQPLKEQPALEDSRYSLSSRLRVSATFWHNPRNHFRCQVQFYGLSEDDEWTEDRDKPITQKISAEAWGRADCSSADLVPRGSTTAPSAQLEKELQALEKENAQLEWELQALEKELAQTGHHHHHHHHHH
Method: Purified ISVDs were injected for 2 minutes (flow rate 45 μL/min) at different concentrations (between 0.2 nM and 200 nM) and dissociation was followed for 900 s. Regeneration was performed by injecting 3 M MgCl₂ for 3 minutes (flow rate 90 μL/min). […] Processed sensorgrams were analyzed based on the 1:1 interaction model (Langmuir binding model) using ProteOn Manager 3.1.0 (Version 3.1.0.6) software.

[4] = target: T4, Cynomolgus T cell receptor on cynomolgus primary T cells (cynomolgus monkey); test: cell-based or functional assay
[5] = target: T5, Human T cell receptor on human primary T cells (human, UniProt P01848 1-140; P01850 1-176); test: cell-based or functional assay
T5 TCR alpha (looked up): T2 TCR alpha (looked up)
T5 TCR beta (looked up): T2 TCR beta (looked up)

[6] = target: T4, Cynomolgus T cell receptor on …; test: cell-based or functional assay; remark: listed apart in the source
[7] = target: T5, Human T cell receptor on human primary …; test: cell-based or functional assay
[8] = target: T4, Cynomolgus T cell receptor on …; test: cell-based or functional assay; remark: listed apart in the source
[9] = target: T5, Human T cell receptor on human primary …; test: cell-based or functional assay
[10] = target: T4, Cynomolgus T cell receptor on …; test: cell-based or functional assay; remark: listed apart in the source
[11] = target: T5, Human T cell receptor on human primary …; test: cell-based or functional assay
[12] = target: T6, Cynomolgus TCR(AEA41865/AEA41866)-zipper protein (cynomolgus monkey); test: SPR, ProteOn XPR36, 25 C, immobilised TCR-zipper
T6 construct: also called cyTCR-zipper protein; cynoTCR zipper
Text: (§2) HuTCR-zipper or cyTCR-zipper protein was immobilized on a GLC sensor chip (between 100-200 RU) via amine coupling chemistry, using EDC/NHS for activation of the carboxyl groups on the chip surface (running buffer: HBS-EP+, pH7.4). […] Processed sensorgrams were fitted with the Langmuir model (1:1 interaction) using ProteOn Manager 3.1.0 (Version 3.1.0.6) software.
T6 TCR alpha: T3 TCR alpha
T6 TCR beta: T3 TCR beta

[13] = target: T7, human T cell receptor on human primary T cells (human, UniProt P01848 1-140; P01850 1-176); test: flow cytometry, human primary T cells
T7 construct: whole, on cells
Method: Dose-dependent binding of the purified monovalent ISVD variants to CHO-K1 huTCR(2XN9)/huCD3 overexpressing cells or human primary T cells was evaluated by flow cytometry. […] Next, cells were washed 3 times with FACS buffer and incubated with 1 μg/ml THE™ His Tag Antibody, mAb, Mouse (Genscript, A00186) and washed again. […] Subsequently, cells were resuspended in FACS buffer supplemented with 5 nM TO-PRO®-3 Iodide to distinguish live from dead cells, which are removed during the gating procedure. Cells were analyzed using a FACS Array flow cytometer (BD Biosciences) and Flowing Software. First a P1 population which represented more than 80% of the total cell population was selected based on FSC-SSC distribution. In this gate, 10000 cells were counted during acquisition. From this population the TO-PRO®-3+ cells (dead cells) were excluded and the mean fluorescence intensity (MFI) PE value was calculated.
T7 TCR alpha (looked up): T2 TCR alpha (looked up)
T7 TCR beta (looked up): T2 TCR beta (looked up)

[14] = target: T5, Human T cell receptor on human primary …; test: flow cytometry competition with Flag3-His6-tagged anti-TCR ISVD ligand, human primary T cells
Method: (§3) Subsequently, cells were resuspended in FACS buffer supplemented with 1 μg/ml Propidium Iodide (PI, Sigma, P4170) to distinguish live from dead cells. Cells were analyzed using a FACS Array flow cytometer (BD Biosciences) using Flowing Software. First a P1 population which represented more than 80% of the total cell population was selected based on FSC-SSC distribution. In this gate, 10000 cells were counted during acquisition. From this population the Propidium iodide or TO-PRO©-3 Iodide positive cells (dead cells) were excluded and the median or Mean PE value was calculated.

[15] = target: T8, Cynomolgus T cell receptor on the HSC-F cynomolgus T cell line (cynomolgus monkey); test: flow cytometry competition with Flag3-His6-tagged anti-TCR ISVD ligand, HSC-F cells
T8 construct: whole, on cells; also called HSC-F cells; HSC-F cyno T cell line (NIBIO JCRB1164)
Method: as §3

[16] = target: T5, Human T cell receptor on human primary …; test: flow cytometry, human primary T cells
Method: (§4) The ISVD variants were characterized for binding to CHO-K1 huTCR(2XN9)/huCD3 or to human and cynomolgus primary T cells. […] Next, cells were washed 3 times with FACS buffer and incubated with 1 μg/ml ANTI-FLAG® M2 Ab (Sigma, F1804) and washed again. […] Subsequently, cells were resuspended in FACS buffer supplemented with 5 nM TO-PRO®-3 Iodide to distinguish live from dead cells, which are removed during the gating procedure. Cells were analyzed using a FACS Array flow cytometer (BD Biosciences) and Flowing Software. First a P1 population which represented more than 80% of the total cell population was selected based on FSC-SSC distribution. In this gate, 10000 cells were counted during acquisition. From this population the TO-PRO®-3+cells (dead cells) were excluded and the mean fluorescence intensity (MFI) PE value was calculated.

[17] = target: T6, Cynomolgus …; test: higher koff divided by lower koff, humanTCR zipper vs cynoTCR zipper (SPR)
[18] = target: T6, Cynomolgus …; test: SPR, ProteOn XPR36, 25 C, immobilised TCR-zipper
Text: as §2

[19] = target: T5, Human T cell receptor on human primary …; test: flow cytometry, human primary T cells
Method: as §4

[20] = target: T6, Cynomolgus …; test: SPR off-rate, ProteOn XPR36, immobilised TCR-zipper

B3: T017000351 (VHH, not shown: small tags and cut ends)
VHH: EVQLVESGGGVVQPGGSLRLSCVASGDVHKINFLGWYRQAPGKEREKVAHISIGDQTDYADSAKGRFTISRDESKNMVYLQMNSLRPEDTALYFCRAFSRIYPYDYWGQGTLVTVSS
notes: also called T0170000351
- EC50 [13]: 110 nM

B4: T017000681 (VHH)
VHH: B3 VHH with E1D, D27Y, L34Y, M77T, L92T, F94Y, F98L, Y102W
- IC50 [14]: 92 nM
- IC50 [15]: 730 nM

B5: T017000624 (VHH, not shown: small tags and cut ends)
VHH: B3 VHH with D27Y, L34Y, M77T, F94Y, F98L, Y102W
- EC50 [16]: 45 nM
- Gap in off-rate human vs cyno [17]: 4.5 fold
- Kd [18]: 6.3 nM
- EC50 [19]: 46 nM

B8: T017000679 (VHH)
VHH: B3 VHH with E1D, D27Y, L34Y, M77T, F94Y, F98L, Y102W
- IC50 [14]: 100 nM
- IC50 [15]: 620 nM

B10: T0170056G05 (VHH)
VHH: B3 VHH with V11L, R86K, L92V
notes: also called T01700056G05; parental ISVD
- EC50 [13]: 110 nM

B12: T017000634 (bispecific antibody)
chain: DVQLVESGGGLVQAGGSLRLSCAASGITSKINDMGWYRQTPGNYREWVASITATGTTNYRDSVKGRFTISRDNAKSTVYLQMNSLKPEDTTVYYCNTFPPISNFWGQGTLVTVSSGGGGSGGGGSGGGGSGGGGSGGGGSGGGGSGGGGSEVQLVESGGGVVQPGGSLRLSCVASGYVHKINFYGWYRQAPGKEREKVAHISIGDQTDYADSAKGRFTISRDESKNTVYLQMNSLRPEDTALYYCRALSRIWPYDYWGQGTLVTVSSA
notes: also called A0110056A10(E1D)-35GS-T0170056G05(L11V, D27Y, L34Y, M77T, K83R, V89L, F91Y, F95L, Y99W)-A
- % Lysis, T cell mediated MOLM-13 cell killing, cynomolgus primary T cells, E:T 10:1 [4]: 32%
- EC50 (M), T cell mediated MOLM-13 cell killing, cynomolgus primary T cells, E:T 10:1 [4]: 1.2e-10 M
- % lysis, KG-1a, Human T cell mediated killing [5]: 49%
- EC50 (M), KG-1a, Human T cell mediated killing [5]: 4.4e-10 M
- % lysis, KG-1a, Cynomolgus T cell mediated killing [6]: 41%
- EC50 (M), KG-1a, Cynomolgus T cell mediated killing [6]: 2.7e-10 M
- IC50 (M), xCELLigence CHO Flp-In huCD123 cell killing, Human T cell mediated killing [7]: 1.1e-11 M
- IC50 (M), xCELLigence CHO Flp-In huCD123 cell killing, Cynomolgus T cell mediated killing [8]: 1.9e-11 M
- % lysis, MOLM-13, Human T cell mediated killing [9]: 22%
- EC50 (M), MOLM-13, Human T cell mediated killing [9]: 2.5e-10 M
- % lysis, MOLM-13, Cynomolgus T cell mediated killing [10]: 33%
- EC50 (M), MOLM-13, Cynomolgus T cell mediated killing [10]: 2.1e-10 M
- EC50 (M), T cell mediated MOLM-13 cell killing, human primary T cells, E:T 10:1 [11]: 1.4e-10 M
- Kd [12]: 200 nM

Continued, in another order:

- IC50 [1]: 250 nM
- IC50 [2]: 190 nM
- Kd [3]: 11 nM
B1: T017000698 (bispecific antibody)
chain: DVQLVESGGGVVQPGGSLRLSCVASGYVHKINFYGWYRQAPGKEREKVAHISIGDQTDYADSAKGRFTISRDESKNTVYLQMNSLRPEDTAAYYCRALSRIWPYDYWGQGTLVTVSSGGGGSGGGSEVQLVESGGGVVQPGGSLRLSCAASGFTFRSFGMSWVRQAPGKGPEWVSSISGSGSDTLYADSVKGRFTISRDNSKNTLYLQMNSLRPEDTALYYCTIGGSLSRSSQGTLVTVSSA
notes: also called T017000680-9GS-ALB23002-A; TCE01-9GS-ALB23002-A

- Kd [12]: 17 nM
B2: T017000633 (bispecific antibody)
chain: DVQLVESGGGVVQPGGSLRLSCVASGYVHKINFYGWYRQAPGKEREKVAHISIGDQTDYADSAKGRFTISRDESKNTVYLQMNSLRPEDTALYYCRALSRIWPYDYWGQGTLVTVSSGGGGSGGGGSGGGGSGGGGSGGGGSGGGGSGGGGSEVQLVESGGGLVQAGGSLRLSCAASGITSKINDMGWYRQTPGNYREWVASITATGTTNYRDSVKGRFTISRDNAKSTVYLQMNSLKPEDTTVYYCNTFPPISNFWGQGTLVTVSSA
- % Lysis, T cell mediated MOLM-13 cell killing, cynomolgus primary T cells, E:T 10:1 [4]: 35%
- EC50 (M), T cell mediated MOLM-13 cell killing, cynomolgus primary T cells, E:T 10:1 [4]: 5.2e-11 M
- % lysis, KG-1a, Human T cell mediated killing [5]: 56%
- EC50 (M), KG-1a, Human T cell mediated killing [5]: 6.8e-10 M
- % lysis, KG-1a, Cynomolgus T cell mediated killing [6]: 64%
- EC50 (M), KG-1a, Cynomolgus T cell mediated killing [6]: 3.4e-10 M
- IC50 (M), xCELLigence CHO Flp-In huCD123 cell killing, Human T cell mediated killing [7]: 9.1e-12 M
- IC50 (M), xCELLigence CHO Flp-In huCD123 cell killing, Cynomolgus T cell mediated killing [8]: 5.1e-12 M
- % lysis, MOLM-13, Human T cell mediated killing [9]: 26%
- EC50 (M), MOLM-13, Human T cell mediated killing [9]: 1.8e-10 M
- % lysis, MOLM-13, Cynomolgus T cell mediated killing [10]: 44%
- % Lysis, T cell mediated MOLM-13 cell killing, human primary T cells, E:T 10:1 [11]: 31%
- EC50 (M), T cell mediated MOLM-13 cell killing, human primary T cells, E:T 10:1 [11]: 1.2e-10 M

- EC50 [13]: 160 nM
B6: T017000345 (VHH, not shown: small tags and cut ends)
VHH: B3 VHH with F94Y

- Gap in off-rate human vs cyno [17]: 12.4 fold
- Kd [18]: 220 nM
- EC50 [19]: 100 nM
B7: T017000141 (VHH, not shown: small tags and cut ends)
VHH: B3 VHH

- koff [20]: 0.00399 s⁻¹
B9: T017000685 (VHH, not shown: small tags and cut ends)
VHH: B3 VHH with D27E, K30Q, L34Y, M77T, F94Y, F98L, Y102W

- koff [20]: 0.00427 s⁻¹
B11: T017000687 (VHH, not shown: small tags and cut ends)
VHH: B3 VHH with D27S, K30Q, L34Y, M77T, F94Y, F98L, Y102W
